Measured values published in patent US20240011017A1 (Genentech, published 2024).

Experiments:
FLRT1 (in supernatants) = target: T1, FLRT1 (in supernatants) (human, UniProt Q9NZU1 49-552); test: cell-based immunofluorescence validation (FIG. 17): receptor in supernatants, KCP on cells
T1 sequence: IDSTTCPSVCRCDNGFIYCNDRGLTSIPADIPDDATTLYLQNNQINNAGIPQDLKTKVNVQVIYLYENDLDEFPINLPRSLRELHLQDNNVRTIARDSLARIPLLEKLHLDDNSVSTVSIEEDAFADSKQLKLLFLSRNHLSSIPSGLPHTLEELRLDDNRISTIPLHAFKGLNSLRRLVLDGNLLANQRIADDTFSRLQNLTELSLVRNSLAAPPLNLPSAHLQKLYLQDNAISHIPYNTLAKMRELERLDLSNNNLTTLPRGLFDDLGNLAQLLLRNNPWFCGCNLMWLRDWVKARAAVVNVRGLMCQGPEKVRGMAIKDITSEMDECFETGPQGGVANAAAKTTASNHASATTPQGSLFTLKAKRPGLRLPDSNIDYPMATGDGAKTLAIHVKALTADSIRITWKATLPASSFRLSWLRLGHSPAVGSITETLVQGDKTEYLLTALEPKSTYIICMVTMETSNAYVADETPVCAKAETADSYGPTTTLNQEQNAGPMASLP

FLRT2 (in supernatants) = target: T2, FLRT2 (in supernatants) (human, UniProt O43155 36-541); test: as above
T2 sequence: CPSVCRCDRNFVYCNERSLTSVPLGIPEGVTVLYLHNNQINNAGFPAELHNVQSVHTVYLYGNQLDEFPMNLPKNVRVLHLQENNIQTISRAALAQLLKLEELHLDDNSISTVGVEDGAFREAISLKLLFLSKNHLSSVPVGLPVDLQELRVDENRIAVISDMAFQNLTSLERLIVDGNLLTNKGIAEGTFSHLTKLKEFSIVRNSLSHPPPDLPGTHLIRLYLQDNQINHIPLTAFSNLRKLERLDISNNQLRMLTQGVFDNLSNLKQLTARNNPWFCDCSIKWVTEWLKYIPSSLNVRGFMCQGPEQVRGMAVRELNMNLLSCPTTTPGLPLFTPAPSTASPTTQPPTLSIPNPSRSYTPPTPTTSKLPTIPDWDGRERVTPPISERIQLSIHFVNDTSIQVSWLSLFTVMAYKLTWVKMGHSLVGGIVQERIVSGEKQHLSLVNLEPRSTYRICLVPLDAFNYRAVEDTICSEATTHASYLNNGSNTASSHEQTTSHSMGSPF

B1: HHV8 protein KCP expressed on cells (gD-GPI construct or full-length protein) (other)
chain: QDNEKCSQKTLIGYRLKMSRDGDIAVGETVELRCRSGYTTYARNITATCLQGGTWSEPTATCNKKSCPNPGEIQNGKVIFHGGQDALKYGANISYVCNEGYFLVGREYVRYCMIGASGQMAWSSSPPFCEKEKCHRPKIENGDFKPDKDYYEYNDAVHFECNEGYTLVGPHSIACAVNNTWTSNMPTCELAGCKFPSVTHGYPIQGFSLTYKHKQSVTFACNDGFVLRGSPTITCNVTEWDPPLPKCVLEDIDDPNNSNPGRLHPTPNEKPNGNVFQRSNYTEPPTKPEDTHTAATCDTNCEQPPKILPTSEGFNETTTSNTITKQLEDEKTTSQPNTHITSALTSMKAKGNFTNKTNNSTDLHIASTPTSQDDATPSIPSVQTPNYNTNAPTRTLTSLHIEEGPSNSTTSEKATASTLSHNSHKNDTGGIYTTLNKTTQLPSTNKPTNSQAKSSTKPRVETHNKTTSNPAISLTDSADVPQRPREPTLPPIFRPPASKNRYL
notes: also called HHV8 KCP
- binding result (FLRT1 (in supernatants)): binds
- binding result (FLRT2 (in supernatants)): binds
